This is an account of results in patent US20140193430A1.

Assay [1] concerns the target recombinant KIR2DL1 protein (entire extracellular domain, produced in E. coli, refolded) (human) (UniProt P43626). In words: BIAcore, direct binding of second Ab to KIR2DL1 chip (field of first Ab EB6). In general terms: In SPR one partner is held on a chip, and binding of the other changes the refractive index at the surface.
Assay [2] has the same target. The assay can be described thus: BIAcore competition on KIR2DL1 chip; first Ab EB6, second Ab (competitor) EB6.
For assay [3] the target is unchanged. The assay can be described thus: BIAcore competition on KIR2DL1 chip; first Ab EB6, second Ab (competitor) DF200.
For assay [4] the target is unchanged. In words: BIAcore competition on KIR2DL1 chip; first Ab EB6, second Ab (competitor) 1-4F1.
For assay [5] the target is unchanged. In words: BIAcore competition on KIR2DL1 chip; first Ab EB6, second Ab (competitor) Pan2D.
Assay [6] shares this target. The assay can be described thus: BIAcore, second Ab on KIR2DL1 chip with first Ab (competitor) 1-6F1 bound.
Assay [7] shares this target. The assay can be described thus: BIAcore, direct binding of second Ab to KIR2DL1 chip (field of first Ab 1-6F1).
Assay [8] has the same target. In words: BIAcore competition on KIR2DL1 chip; first Ab EB6, second Ab (competitor) 1-6F1.
The target is the same in assay [9]. The assay can be described thus: BIAcore, second Ab on KIR2DL1 chip with first Ab (competitor) 1-7F9 bound.
Assay [10] shares this target. The assay can be described thus: BIAcore competition on KIR2DL1 chip; first Ab EB6, second Ab (competitor) 1-7F9.
Assay [11] has the same target. The assay can be described thus: BIAcore, second Ab on KIR2DL1 chip with first Ab (competitor) EB6 bound.
For assay [12] the target is unchanged. In words: BIAcore, direct binding of second Ab to KIR2DL1 chip (field of first Ab 1-7F9).
In assay [13] the target is recombinant KIR2DL3 protein (entire extracellular domain, produced in E. coli, refolded) (human) (UniProt P43628). In words: BIAcore competition on KIR2DL3 chip; first Ab Pan2D, second Ab (competitor) 1-6F5.
Assay [14] shares this target. The assay can be described thus: BIAcore, direct binding of second Ab to KIR2DL3 chip (field of first Ab 1-4F1).
For assay [15] the target is unchanged. The assay can be described thus: BIAcore, direct binding of second Ab to KIR2DL3 chip (field of first Ab 1-7F9).
Assay [16] addresses recombinant KIR2DL1 protein (entire extracellular domain, produced in E. coli, refolded) (human) (UniProt P43626). In words: BIAcore, direct binding of second Ab to KIR2DL1 chip (field of first Ab 1-6F5).
The target of assay [17] is immobilized KIR2DS1 (UniProt Q14954). The assay can be described thus: BIAcore, second Ab on KIR2DS1 chip with first Ab (competitor) 1-7F9 bound.
Assay [18] deals with recombinant KIR2DL3 protein (entire extracellular domain, produced in E. coli, refolded) (human) (UniProt P43628). The assay can be described thus: BIAcore, second Ab on KIR2DL3 chip with first Ab (competitor) 1-7F9 bound.
Assay [19] has the same target. The assay can be described thus: BIAcore competition on KIR2DL3 chip; first Ab Pan2D, second Ab (competitor) 1-6F1.
For assay [20], the target named is immobilized KIR2DS1 (UniProt Q14954). In words: BIAcore competition on KIR2DS1 chip; first Ab Pan2D, second Ab (competitor) 1-7F9.
The target of assay [21] is recombinant KIR2DL3 protein (entire extracellular domain, produced in E. coli, refolded) (human) (UniProt P43628). In words: BIAcore, second Ab on KIR2DL3 chip with first Ab (competitor) 1-6F5 bound.
The target is the same in assay [22]. In words: BIAcore, second Ab on KIR2DL3 chip with first Ab (competitor) 1-6F1 bound.
Assay [23] deals with recombinant KIR2DL1 protein (entire extracellular domain, produced in E. coli, refolded) (human) (UniProt P43626). In words: BIAcore, second Ab on KIR2DL1 chip with first Ab (competitor) 1-6F5 bound.
Assay [24] concerns the target recombinant KIR2DL3 protein (entire extracellular domain, produced in E. coli, refolded) (human) (UniProt P43628). In words: BIAcore competition on KIR2DL3 chip; first Ab Pan2D, second Ab (competitor) 1-4F1.
Assay [25] has as its target recombinant KIR2DL1 protein (entire extracellular domain, produced in E. coli, refolded) (human) (UniProt P43626). The assay can be described thus: BIAcore competition on KIR2DL1 chip; first Ab Pan2D, second Ab (competitor) 1-6F1.
The target is the same in assay [26]. In words: BIAcore competition on KIR2DL1 chip; first Ab Pan2D, second Ab (competitor) 1-6F5.
Assay [27] addresses immobilized KIR2DS1 (UniProt Q14954). In words: BIAcore competition on KIR2DS1 chip; first Ab Pan2D, second Ab (competitor) 1-4F1.
Assay [28] addresses recombinant KIR2DL1 protein (entire extracellular domain, produced in E. coli, refolded) (human) (UniProt P43626). In words: BIAcore competition on KIR2DL1 chip; first Ab Pan2D, second Ab (competitor) EB6.
Assay [29] deals with recombinant KIR2DL3 protein (entire extracellular domain, produced in E. coli, refolded) (human) (UniProt P43628). In words: BIAcore, direct binding of second Ab to KIR2DL3 chip (field of first Ab 1-6F5).
The target is the same in assay [30]. The assay can be described thus: BIAcore, direct binding of second Ab to KIR2DL3 chip (field of first Ab 1-6F1).
The target is the same in assay [31]. The assay can be described thus: BIAcore, second Ab on KIR2DL3 chip with first Ab (competitor) 1-4F1 bound.
Assay [32] concerns the target recombinant KIR2DL1 protein (entire extracellular domain, produced in E. coli, refolded) (human) (UniProt P43626). In words: BIAcore competition on KIR2DL1 chip; first Ab Pan2D, second Ab (competitor) 1-4F1.
The target is the same in assay [33]. In words: BIAcore competition on KIR2DL1 chip; first Ab Pan2D, second Ab (competitor) DF200.
Assay [34] addresses recombinant KIR2DL3 protein (entire extracellular domain, produced in E. coli, refolded) (human) (UniProt P43628). In words: BIAcore competition on KIR2DL3 chip; first Ab Pan2D, second Ab (competitor) DF200.
Assay [35] concerns the target KIR2DL1(R131W)-hFc (human) (UniProt P43626). In words: ELISA, KIR2DL1(R131W)-hFc captured via goat anti-human antibodies, mAb titrated, peroxidase anti-mouse, A450 [panel pan2D]. A general note: ELISA stands for enzyme-linked immunosorbent assay.
The target in assay [36] is recombinant KIR2DL3 protein (entire extracellular domain, produced in E. coli, refolded) (human) (UniProt P43628). The assay can be described thus: BIAcore competition on KIR2DL3 chip; first Ab Pan2D, second Ab (competitor) 1-7F9.
The target of assay [37] is recombinant KIR2DL1 protein (entire extracellular domain, produced in E. coli, refolded) (human) (UniProt P43626). The assay can be described thus: BIAcore competition on KIR2DL1 chip; first Ab Pan2D, second Ab (competitor) 1-7F9.
Assay [38] has as its target immobilized KIR2DS1 (UniProt Q14954). In words: BIAcore, direct binding of second Ab to KIR2DS1 chip (field of first Ab 1-7F9).
The target is the same in assay [39]. The assay can be described thus: BIAcore competition on KIR2DS1 chip; first Ab Pan2D, second Ab (competitor) DF200.
Assay [40] addresses recombinant KIR2DL3 protein (entire extracellular domain, produced in E. coli, refolded) (human) (UniProt P43628). In words: BIAcore competition on KIR2DL3 chip; first Ab Pan2D, second Ab (competitor) gl183.

The term EC50 (read off the curve) denotes the concentration giving half of the maximal effect. A lower EC50 (read off the curve) goes with an effect from little substance.

As for EB6 (IgG1 anti KIR2DL1) (antibody), the RU, direct binding (RU1) in [1] was determined as 460 RU; in assay [7], 260 RU; in assay [12] it was 460 RU. For the same substance, the % inhibition of second Ab binding by first Ab in [2] stood at 57%; in assay [3] it was 60%; in assay [4] it was 48%; in assay [5], 40%; in assay [8], 23%; in assay [10], 65%. For the same substance, the RU, binding with first Ab present (RU2) in assay [6] came to 320 RU; in assay [9] it was 180 RU; in assay [11] it was 200 RU.
Consider monoclonal antibody NKVSF1, for which the % inhibition of second Ab binding by first Ab in assay [13] was 18%; in [19], 8%; with immobilized KIR2DS1 [20] it was 45%; in assay [24] it was 68%; in assay [25] it was 12%; in assay [26] it was 13%. The % inhibition of second Ab binding by first Ab with immobilized KIR2DS1 [27] came to 100%; in [28], 90%; in assay [32], 95%; in assay [33], 90%; in [34], 95%; in [36] it was 15%. For the same substance, the values for the % inhibition of second Ab binding by first Ab (in [37]; with immobilized KIR2DS1 [39]; in assay [40]) were 2%, 100% and 85%, respectively. In addition, the RU, direct binding (RU1) in [14] worked out at 2400 RU; in assay [15], 870 RU; in [16], 475 RU; in assay [7], 475 RU; in [29], 990 RU; in [30] it was 990 RU. Moreover, the figures for the RU, direct binding (RU1) (with immobilized KIR2DS1 [38]; in assay [12]) were 1350 RU and 545 RU, respectively. The RU, binding with first Ab present (RU2) amounted to 1200 RU with immobilized KIR2DS1 [17]; 830 RU in assay [18]; 950 RU in assay [21]; 1090 RU in [22]; 440 RU in assay [6]; 440 RU in assay [23]. Besides, the results for the RU, binding with first Ab present (RU2) in assay [31] and in assay [9] were 890 RU and 534 RU, respectively. This substance displayed an EC50 (read off the curve) in assay [35] of 20 nM.
